The values that follow are results of earlier work, collected in article PMC8544432.

pKd: −log10 of the molar value. Where two headings read alike, the source gives them in different places.

Series [1] deals with PBX1 (Homo sapiens) (UniProt P40424).
Series [2] has the same target. The source holds these as a separate data set.

UniProt P40424, sequence (P40424 whole entry): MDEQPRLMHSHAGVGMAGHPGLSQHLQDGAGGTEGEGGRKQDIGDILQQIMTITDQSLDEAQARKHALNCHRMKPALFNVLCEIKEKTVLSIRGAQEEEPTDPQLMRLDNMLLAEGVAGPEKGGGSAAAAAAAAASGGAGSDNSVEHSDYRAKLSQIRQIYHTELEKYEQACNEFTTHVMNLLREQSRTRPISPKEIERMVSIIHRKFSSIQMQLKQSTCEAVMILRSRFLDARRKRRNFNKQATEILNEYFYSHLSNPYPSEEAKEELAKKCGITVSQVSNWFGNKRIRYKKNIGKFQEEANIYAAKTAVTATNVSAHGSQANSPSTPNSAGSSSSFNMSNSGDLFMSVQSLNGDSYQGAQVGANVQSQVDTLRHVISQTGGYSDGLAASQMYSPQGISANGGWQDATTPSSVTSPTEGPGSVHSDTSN

Take MEIS1 (from UniProt O00470): the pKd with PBX1 (Homo sapiens) [1] was 7.10.

On to PREP1 (from UniProt P55347), for which, in the series with PBX1 (Homo sapiens) [2], the pKd is 7.74.

Usually pKd stands for the Kd on a negative log10 scale, so that one unit is a factor of ten.
